From the NTF2 design screens of Basanta et al. (2020)

Test: protease stability score; higher = more stable; yeast display proteolysis, trypsin and chymotrypsin;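 note: relative to predicted unfolded state with 0 unfolded-like and 1 meaning tenfold more protease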

Going from “SLEEHAFRLALHLLENMWLTGDEELFERLLDPHARLEFENHKYHGRDIVSEFMRRIKNLTFHRIIFRNRDVQGEKVSFIMETDVEWNGKRHIEHTHITVHKINGVWLIHEVDIR” to “SEENEHLHHLMRLVIEMFETGDEDRWYKLADPNTRMEVDGREFIGREEVIKFLRNLGVNHFWIDDVDIINGRAHIRSTLRFNGQERDLNINLHFVDGKLKREKWIIR”, the protease stability score falls from 1.42 to 0.841.

Compared with “DEDEKVSHHAYKLIEHLFLTGDESTWMRMADPRTRIIIGDFHLIGREEWARVLKEILDRLGFKHIQFTDREVRVYGEKVHVELHLLLIQGDKEIRVELRYISDKIDGQWRYHSVTHHIK”, “TELEKDAKEFFRIVIEAWLTGDEQKIEHLADPHVRLDINGVELHGWEELIRRLHDELHRYDYMQINVRRVEIQGEKIHVDGELELRFDGKIYRHEVEINILVVNGKNKEQKFVKK” is lower in protease stability score: 0.998 for the first, 0.243 for the second.

Compared with “DEEEERRRHLIDVLLRLWHTGDEESFTNLADPHVRIHVGDKIFHGREAASRWMHNVREHWRLHHERDHDVKIQGEKVVRDGHVDIEFNGVRVRTRVEIILTVVNGQIKLIEIRIL”, “DEDERTMRIAFEMFKHNLETGDEDVIRRFVDPHVKIDIDGVHLHGWEVMYERIMRFDHVDIRLRDIRTFNGRAEIDGEILVEINGVSIEKRLIIHSEKIDGRWILRSHRII” is lower in protease stability score: 1.26 for the first, 0.89 for the second.

Going from “GEMEKLLFKIFEEWMKLRKTGDEDVIAHLADPDYRWDVNGVDLHGMEHVKEFTEEFLRHLGFDHQEYRIRRFDHDGNKLRADTEVRIVVNGVDITHRTHIIIVQFNGKVKSVKERIR” to “SEDHEEVRKVTKVYLELFETGDEEELMKLADPEVRLHINGRDLHGREWMERAIRELLEYYGVKHIESWTIHDITIQGDKAVMDTSVKIRVNGREHELKMHIYSRKFDGRWFLTSVRFH”, the protease stability score rises from 0.292 to 1.26.

Going from “DDRYRLVEHMSRHFFENWLTGDFDRLVELADPTVRSHFEYGDKEILNIGMEEHVKMERHWREKMGANHLFLDDVRIQGNKAHIHGQLDVGDKHNRARLELNIVDGRIKEIYIEIR” to “DEDEEEMHHRIEEHFEYLRTGDWKLIRNLVDPSVRVDVDGKEHHGWHEFVRYAVHIRVRRYELKHIRIIDGQVDFQGRIDGEIDGKFRSFNIFIIAQKIDGRWIFKEVRMH”, the protease stability score rises from 0.018 to 1.68.

Going from “DEEHRDFKHLIKIFDDSVETGDEETFHKLLDPDVRIRVGDWQLVGREEARRVFQQIRIIIHSNRIHDVKVINGKIHADTHVDFRIEVGDKTVRERSRTIIYLDKVNGVWTIHSIEFK” to “SEKEEDITRFITMWARYLVTGDEDRSRELLDPSVKMHIGEKNLIGREKLLEFVHRMWRRVDHIHIHFHTIDIQGDKLKVDFEIELRQGDKSDSIRTSMIVDKVDGRWILHKITME”, the protease stability score rises from 1.08 to 1.74.

First: DEDRKHMEQAITLLKRLWETGNEEDILKNLDPNVRFEVGEWVDHGRRSIEIFRERFKNLRVHDTRHKDRDVVDGRAHLHGEYNGEINGRLINTHVILVIEKVNGRWYFESIHIH
Second: DEHQRMLELFMRLLMHSQETGDEKTLRELADPNARIHVGDKDYVGREHAAKLLVEWRIHDLELRTVDVQGDKIQWEGELEGEYNGKQDRYETYIIVTKIDGRWLEERVIFK
The protease stability score of the first is lower: 1.19 for the first, 1.3 for the second.

First: SEEKEDIDLAMEIFLHALETGDWEELLRQMDPNVRIVIGDKETHGREEFELTLLKLGIDHFHIKDMKLINGRLHLDTRVHFNGVTVQTEIIIVKFNGRWVIEEMDFQ
Second: SEDEREFEEFVRFFFKMMVTGDEDDLIRLLDPHAKFEINGKILHGWRHLLEEIREMGIKHWKIRDIKVQGEKVENELELEVGEKRFHIRLIATKVNGKWHVKEFSIHEI
The protease stability score of the first is higher: 2.4 for the first, 2.29 for the second.

Going from “SEEEELLRRITDEMIESMLTGDEKYILENVDPNVRLHIGDKTYVGWETYEDHMRERLEKLGADHMKLEHKDHQGNYTLIEGNLSFNGRELEVRIKLIIVNGVLEQVEVRFD” to “DDLEHSSETFEKLWLESVFTGDWRSLLEMLDPHARLVINGRDFIGRELVKETLKEFLDRVPNMTLKLEDREVHIQGDKARIELHTRLEVGDKTVDTRIELIVNKIDGRWLLESQIIRIH”, the protease stability score rises from 0.955 to 1.08.

Going from “TEEEEHWKHLVELWLRAVETGDEHLLHRLLDPHVKIDYNGKELHGRETHIKIERHFRERYKGLRWEIKHHEIQGDKAHVDFLLNVNGREHRVRIEIIIVNGRVHQIHFDIN” to “SEEEKEAEEFLRKHLHDRLTGDEDWVLRNIDPNARFDINGREIIGMEEWRQWLHEARVRVDDTQIDEKRSVGNKLDVRSTMHVTIEFDGVRVKHILDVELIMTKVDGKWKVKEVRVR”, the protease stability score falls from 2.23 to 1.61.

First: DEEDRQAEHIARLVIEELLTGDEESFSHLVDPDTRSEFDGKEFIGREWFNKWLRRILEEIRFHINPTEIRYQGDKAIVHGRLHLHYNGQDVHITVHYKLIVINGRHKRIKEERS
Second: DEEDKHLIDMFRILMRTIETGNEEETRKLMDPHTIIEIGDKRSHGWESWKKFIEDLERRFDHVRIEIEDVKVQGDKAIVRTRLKLIVGDKHFEHDTRIFVVMVNGRIHTFRVEID
The protease stability score of the first is lower: 1.3 for the first, 1.48 for the second.

Going from “DEDEEHAYRIFKILLESVYTGNEEMLHTLLDPHARLVFDGVHHHGRETVSYMMHHWRVEEFHTHSFHVDIINGVADLKWDGHITGHFNGKRQESRVEIRFFLRKVDGKWLNESVEIIFR” to “DHEENMLKLMVTLWTQSLRTGDEDTLFRLMDPHARDVVGDKEFHGREEVKHHLRELLLEIRIEDSHVEDFRVYDGVAEIDTRQHGIFNGKRLEYETRILVLKVNGRWIFTHVERR”, the protease stability score falls from 1.49 to 0.592.

For “SEEEHVLEFIVKLFLEAWLTGDEDIIDWLVDPHTRLHVNGVDLHGREEVSHFLAHIRVEQLHIDDERITNINGVLHVDIKTEERFDVNGRVTRTKSELHIFIRKVDGRWFIQVFKIVYH”, the protease stability score was 0.332.
